The record followed here is the supplement of paper PMC5998384.

In data set [1] the test system is HeLa Kyoto. Nature of the data set: solubility in G1/S (NP-40 vs SDS abundance) (log2 ratio); higher = more soluble. The settings on record: cell cycle stage: G1/S.
Data set [2] has as its system HeLa Kyoto. Nature of the data set: solubility change mitosis vs G1/S (difference of NP-40 vs SDS log2 ratios) (log2 ratio difference); higher = more soluble in mitosis.
The subject of data set [3] is HeLa Kyoto. As to the kind of experiment: thermal stability score vs G1/S (z-score of summed log2 fold changes over temperatures); higher = more thermally stable than in G1/S.
The subject of data set [4] is HeLa Kyoto. As to the kind of experiment: melting temperature (median over replicates), in situ; higher = more thermally stable.
[5] abbreviates: cell cycle stage: early G1 (4.5 h after nocodazole release).
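Throughout, for melting temperature (median over replicates), in situ: HeLa Kyoto cells synchronized by double thymidine or nocodazole block, proteins quantified by TMT10plex mass spectrometry, three independent biological replicates.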
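Throughout, for solubility change mitosis vs G1/S (difference of NP-40 vs SDS log2 ratios): synchronized HeLa Kyoto cells (double thymidine block for G1/S, nocodazole release for mitosis), protein amounts in NP-40 versus SDS lysates quantified by mass spectrometry, three biological replicates.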
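Throughout, for solubility in G1/S (NP-40 vs SDS abundance): HeLa Kyoto cells arrested at G1/S by double thymidine block, proteins quantified by TMT10plex mass spectrometry in mild NP-40 versus SDS extracts, three biological replicates.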
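Throughout, for thermal stability score vs G1/S (z-score of summed log2 fold changes over temperatures): synchronized HeLa Kyoto cells, proteins quantified by TMT10plex mass spectrometry, three biological replicates, mitosis taken 0.5 h after nocodazole release, G1/S directly after double thymidine block.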

For “MPFPFGKSHKSPADIVKNLKESMAVLEKQDISDKKAEKATEEVSKNLVAMKEILYGTNEKEPQTEAVAQLAQELYNSGLLSTLVADLQLIDFEGKKDVAQIFNNILRRQIGTRTPTVEYICTQQNILFMLLKGYESPEIALNCGIMLRECIRHEPLAKIILWSEQFYDFFRYVEMSTFDIASDAFATFKDLLTRHKLLSAEFLEQHYDRFFSEYEKLLHSENYVTKRQSLKLLGELLLDRHNFTIMTKYISKPENLKLMMNLLRDKSRNIQFEAFHVFKVFVANPNKTQPILDILLKNQAKLIEFLSKFQNDRTEDEQFNDEKTYLVKQIRDLKRPAQQEA [CAB39]”, the “solubility in G1/S (log2)” value with HeLa Kyoto [1] turned out to be 0.0309. Moreover, in the data set with HeLa Kyoto [2], the “solubility change mitosis (log2)” value was -0.178. The thermal stability score with HeLa Kyoto [3] (setting [5]) came out at 0.362; with HeLa Kyoto [3] (cell cycle stage: mitosis), 2.14. Also, the melting temperature was 54.3 °C in the data set with HeLa Kyoto [4] (cell cycle stage: G1/S) and 55.4 °C in the data set with HeLa Kyoto [4] (cell cycle stage: mitosis).
On to “MPGGLLLGDVAPNFEANTTVGRIRFHDFLGDSWGILFSHPRDFTPVCTTELGRAAKLAPEFAKRNVKLIALSIDSVEDHLAWSKDINAYNCEEPTEKLPFPIIDDRNRELAILLGMLDPAEKDEKGMPVTARVVFVFGPDKKLKLSILYPATTGRNFDEILRVVISLQLTAEKRVATPVDWKDGDSVMVLPTIPEEEAKKLFPKGVFTKELPSGKKYLRYTPQP [PRDX6]”, for which the “solubility in G1/S (log2)” value in the data set on HeLa Kyoto [1] turned out to be 0.444. The “solubility change mitosis (log2)” value with HeLa Kyoto [2] turned out to be 0.118. For the same sequence, the thermal stability score with HeLa Kyoto [3] (setting [5]) is -1.5; in the data set with HeLa Kyoto [3] (cell cycle stage: mitosis) it was -3.41. Besides, the values for the melting temperature in the data set on HeLa Kyoto [4] (cell cycle stage: G1/S) and in the data set with HeLa Kyoto [4] (cell cycle stage: mitosis) were 53.9 °C and 54.5 °C, respectively.
For the sequence “MPGHLQEGFGCVVTNRFDQLFDDESDPFEVLKAAENKKKEAGGGGVGGPGAKSAAQAAAQTNSNAAGKQLRKESQKDRKNPLPPSVGVVDKKEETQPPVALKKEGIRRVGRRPDQQLQGEGKIIDRRPERRPPRERRFEKPLEEKGEGGEFSVDRPIIDRPIRGRGGLGRGRGGRGRGMGRGDGFDSRGKREFDRHSGSDRSSFSHYSGLKHEDKRGGSGSHNWGTVKDELTESPKYIQKQISYNYSDLDQSNVTEETPEGEEHHPVADTENKENEVEEVKEEGPKEMTLDEWKAIQNKDRAKVEFNIRKPNEGADGQWKKGFVLHKSKSEEAHAEDSVMDHHFRKPANDITSQLEINFGDLGRPGRGGRGGRGGRGRGGRPNRGSRTDKSSASAPDVDDPEAFPALA [SERBP1]”, the “solubility in G1/S (log2)” value with HeLa Kyoto [1] is -0.123. Moreover, the “solubility change mitosis (log2)” value in the data set on HeLa Kyoto [2] worked out at 0.395. Also, the thermal stability score in the data set on HeLa Kyoto [3] (setting [5]) is -1.78; in the data set with HeLa Kyoto [3] (cell cycle stage: mitosis), -8.72. Besides, the melting temperature with HeLa Kyoto [4] (cell cycle stage: G1/S) came out at 58.8 °C.
Consider “MPGMVLFGRRWAIASDDLVFPGFFELVVRVLWWIGILTLYLMHRGKLDCAGGALLSSYLIVLMILLAVVICTVSAIMCVSMRGTICNPGPRKSMSKLLYIRLALFFPEMVWASLGAAWVADGVQCDRTVVNGIIATVVVSWIIIAATVVSIIIVFDPLGGKMAPYSSAGPSHLDSHDSSQLLNGLKTAATSVWETRIKLLCCCIGKDDHTRVAFSSTAELFSTYFSDTDLVPSDIAAGLALLHQQQDNIRNNQEPAQVVCHAPGSSQEADLDAELENCHHYMQFAAAAYGWPLYIYRNPLTGLCRIGGDCCRSRTTDYDLVGGDQLNCHFGSILHTTGLQYRDFIHVSFHDKVYELPFLVALDHRKESVVVAVRGTMSLQDVLTDLSAESEVLDVECEVQDRLAHKGISQAARYVYQRLINDGILSQAFSIAPEYRLVIVGHSLGGGAAALLATMLRAAYPQVRCYAFSPPRGLWSKALQEYSQSFIVSLVLGKDVIPRLSVTNLEDLKRRILRVVAHCNKPKYKILLHGLWYELFGGNPNNLPTELDGGDQEVLTQPLLGEQSLLTRWSPAYSFSSDSPLDSSPKYPPLYPPGRIIHLQEEGASGRFGCCSAAHYSAKWSHEAEFSKILIGPKMLTDHMPDILMRALDSVVSDRAACVSCPAQGVSSVDVA [DAGLB]”, for which, in the data set on HeLa Kyoto [1], the “solubility in G1/S (log2)” value was -0.195. Also, in the data set with HeLa Kyoto [2], the “solubility change mitosis (log2)” value was -0.129. The thermal stability score in the data set on HeLa Kyoto [3] (setting [5]) was -0.332; in the data set with HeLa Kyoto [3] (cell cycle stage: mitosis) it was -1.16. Moreover, the melting temperature was 54.6 °C in the data set on HeLa Kyoto [4] (cell cycle stage: G1/S) and 53.1 °C in the data set on HeLa Kyoto [4] (cell cycle stage: mitosis).
Consider “MPHFTVVPVDGPRRGDYDNLEGLSWVDYGERAELDDSDGHGNHRESSPFLSPLEASRGIDYYDRNLALFEEELDIRPKVSSLLGKLVSYTNLTQGAKEHEEAESGEGTRRRAAEAPSMGTLMGVYLPCLQNIFGVILFLRLTWMVGTAGVLQALLIVLICCCCTLLTAISMSAIATNGVVPAGGSYFMISRSLGPEFGGAVGLCFYLGTTFAAAMYILGAIEILLTYIAPPAAIFYPSGAHDTSNATLNNMRVYGTIFLTFMTLVVFVGVKYVNKFASLFLACVIISILSIYAGGIKSIFDPPVFPVCMLGNRTLSRDQFDICAKTAVVDNETVATQLWSFFCHSPNLTTDSCDPYFMLNNVTEIPGIPGAAAGVLQENLWSAYLEKGDIVEKHGLPSADAPSLKESLPLYVVADIATSFTVLVGIFFPSVTGIMAGSNRSGDLRDAQKSIPVGTILAIITTSLVYFSSVVLFGACIEGVVLRDKYGDGVSRNLVVGTLAWPSPWVIVIGSFFSTCGAGLQSLTGAPRLLQAIAKDNIIPFLRVFGHGKVNGEPTWALLLTALIAELGILIASLDMVAPILSMFFLMCYLFVNLACAVQTLLRTPNWRPRFKYYHWALSFLGMSLCLALMFVSSWYYALVAMLIAGMIYKYIEYQGAEKEWGDGIRGLSLSAARYALLRLEEGPPHTKNWRPQLLVLLKLDEDLHVKYPRLLTFASQLKAGKGLTIVGSVIQGSFLESYGEAQAAEQTIKNMMEIEKVKGFCQVVVASKVREGLAHLIQSCGLGGMRHNSVVLGWPYGWRQSEDPRAWKTFIDTVRCTTAAHLALLVPKNIAFYPSNHERYLEGHIDVWWIVHDGGMLMLLPFLLRQHKVWRKCRMRIFTVAQMDDNSIQMKKDLAVFLYHLRLEAEVEVVEMHNSDISAYTYERTLMMEQRSQMLRQMRLTKTEREREAQLVKDRHSALRLESLYSDEEDESAVGADKIQMTWTRDKYMTETWDPSHAPDNFRELVHIKPDQSNVRRMHTAVKLNEVIVTRSHDARLVLLNMPGPPRNSEGDENYMEFLEVLTEGLERVLLVRGGGREVITIYS [SLC12A4]”, for which the “solubility in G1/S (log2)” value with HeLa Kyoto [1] is 0.0648. The “solubility change mitosis (log2)” value with HeLa Kyoto [2] is -0.148. Further, the thermal stability score in the data set on HeLa Kyoto [3] (setting [5]) stood at 0.505; in the data set with HeLa Kyoto [3] (cell cycle stage: mitosis), 0.0338. The figures for the melting temperature with HeLa Kyoto [4] (cell cycle stage: G1/S) and in the data set with HeLa Kyoto [4] (cell cycle stage: mitosis) were 54.3 °C and 54.2 °C, respectively.
Turning to “MPHIDNDVKLDFKDVLLRPKRSTLKSRSEVDLTRSFSFRNSKQTYSGVPIIAANMDTVGTFEMAKVLCKFSLFTAVHKHYSLVQWQEFAGQNPDCLEHLAASSGTGSSDFEQLEQILEAIPQVKYICLDVANGYSEHFVEFVKDVRKRFPQHTIMAGNVVTGEMVEELILSGADIIKVGIGPGSVCTTRKKTGVGYPQLSAVMECADAAHGLKGHIISDGGCSCPGDVAKAFGAGADFVMLGGMLAGHSESGGELIERDGKKYKLFYGMSSEMAMKKYAGGVAEYRASEGKTVEVPFKGDVEHTIRDILGGIRSTCTYVGAAKLKELSRRTTFIRVTQQVNPIFSEAC [GMPR2]”, the “solubility in G1/S (log2)” value with HeLa Kyoto [1] worked out at 0.0286. Moreover, the “solubility change mitosis (log2)” value with HeLa Kyoto [2] is -0.137. Also, the results for the thermal stability score in the data set with HeLa Kyoto [3] (setting [5]) and in the data set with HeLa Kyoto [3] (cell cycle stage: mitosis) were -0.68 and -2.3, respectively. Also, the melting temperature with HeLa Kyoto [4] (cell cycle stage: G1/S) stood at 56.3 °C; with HeLa Kyoto [4] (cell cycle stage: mitosis) it was 59.4 °C.
